The target of the experiment is T1, ATP7B metal binding domains 4-6, spin-labeled (human, UniProt P35670 356-633, MTSL nitroxide spin label (R1) on C358, C431 and C490).
T1 construct: No residue limits are printed; the printed primers translate to a start at GTCSTTL and an end at FHASLAQ followed by a stop codon; Printed mass 29.2 kDa; also called MBD4-6; ATP7B 4-6 domains; source: E. coli Origami 2, purified (chitin bead column, intein self-cleavage with DTT)
T1 sequence (looked up): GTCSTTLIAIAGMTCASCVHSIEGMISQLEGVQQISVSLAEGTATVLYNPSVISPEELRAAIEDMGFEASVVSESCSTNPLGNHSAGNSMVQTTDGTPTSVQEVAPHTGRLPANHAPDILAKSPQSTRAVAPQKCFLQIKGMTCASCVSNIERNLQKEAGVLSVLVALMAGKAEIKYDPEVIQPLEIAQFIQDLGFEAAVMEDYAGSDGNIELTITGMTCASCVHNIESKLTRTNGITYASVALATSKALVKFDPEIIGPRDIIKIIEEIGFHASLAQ
The experiment can be described thus: CW-EPR of spin-labeled proteins; X-band, room temperature (292 ± 5 K), in solution; Atox1 or sl-Atox1 added to spin-labeled MBDs at 1:1 (Atox1:MBD); with and without Cu(I); spin-labeled protein 0.01-0.03 mM. The conditions noted are these: both partners purified.

*: point of attachment. MTSL = MTSL nitroxide spin label (R1), CC1(C)C=C(CS*)C(C)(C)N1[O]

B1: Atox1 metallochaperone, spin-labeled at C41 (natural protein, human)
chain: MPKHEFSVDMTCGGCAEAVSRVLNKLGGVKYDIDLPNKKVC(MTSL)IESEHSMDTLLATLKKTGKTVSYLGLE
notes: Atox1 copper metallochaperone, human; also called sl-Atox1; spin-labeled Atox1
For the molecule B1, the binding result is recorded as “binds”.

B2: Atox1 metallochaperone, wild-type, non spin-labeled (natural protein, human)
chain: MPKHEFSVDMTCGGCAEAVSRVLNKLGGVKYDIDLPNKKVCIESEHSMDTLLATLKKTGKTVSYLGLE
notes: Atox1 copper metallochaperone, human, wild type
B2: the binding result was “binds”.
